The results in this text go back to patent US20210198366A1 (NGM BIOPHARMACEUTICALS, published 2021).

First the molecules themselves.
B4: soluble human B7-H7-Fc fusion protein (extracellular region of human B7-H7, aa 23-344, and a human Fc sequence) (Fc fusion, not shown: a dimerising Fc or GST)
chain: IFPLAFFIYVPMNEQIVIGRLDEDIILPSSFERGSEVVIHWKYQDSYKVHSYYKGSDHLESQDPRYANRTSLFYNEIQNGNASLFFRRVSLLDEGIYTCYVGTAIQVITNKVVLKVGVFLTPVMKYEKRNTNSFLICSVLSVYPRPIITWKMDNTPISENNMEETGSLDSFSINSPLNITGSNSSYECTIENSLLKQTWTGRWTMKDGLHKMQSEHVSLSCQPVNDYFSPNQDFKVTWSRMKSGTFSVLAYYLSSSQNTIINESRFSWNKELINQSDFSMNLMDLNLSDSGEYLCNISSDEYTLLTIHTVHVEPSQETASHN
notes: also called hB7-H7-Fc; soluble B7-H7

Assay [1] has as its target T1, human B7-H7 (soluble analyte in SPR) (human, UniProt Q9UM44 23-344, limits assumed).
T1 sequence: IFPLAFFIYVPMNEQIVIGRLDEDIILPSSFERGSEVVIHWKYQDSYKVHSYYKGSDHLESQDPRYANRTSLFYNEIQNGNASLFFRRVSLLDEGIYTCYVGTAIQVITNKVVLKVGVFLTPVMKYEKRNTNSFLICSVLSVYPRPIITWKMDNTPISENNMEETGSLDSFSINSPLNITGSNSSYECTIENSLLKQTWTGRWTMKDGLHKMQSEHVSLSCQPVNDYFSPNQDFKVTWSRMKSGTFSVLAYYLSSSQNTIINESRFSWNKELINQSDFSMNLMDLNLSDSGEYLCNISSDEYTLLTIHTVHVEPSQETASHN
As to the kind of experiment: SPR (Biacore). The method, then:
(§1) The binding affinities of exemplary anti-B7-H7 antibodies to human B7-H7 and cyno B7-H7 were measured using SPR technology (Biacore system, GE Healthcare Life Sciences). Briefly, anti-Fc antibody (Sigma-Aldrich) was immobilized on all four flow cells of a CM5 chip using amine coupling reagents (GE Healthcare LifeSciences). Exemplary antibodies were captured on flow cells 2, 3, and 4 using flow cell 1 as a reference. Human B7-H7 or cyno B7-H7 (samples ranging from 0.62-40 nM) were injected at a flow rate of 50 μL/min at 37° C. Kinetic data were collected over time and fit using the simultaneous global fit equation to yield affinity constants (KD values) for each antibody.
The binding affinity of Hz2D7 to human B7-H7 and cyno B7-H7 was determined using SPR technology (Biacore system) as described herein and compared with the binding affinity of the parental antibody and with a chimeric 2D7 antibody comprising the murine heavy chain and light chain variable regions of 2D7 and a human Fc region.
On the technique in general: SPR reads the build-up and loss of mass on a sensor chip optically.

For assay [2], the target named is T2, human B7-H7 expressed on the cell surface (human, UniProt Q9UM44 23-414).
T2 sequence: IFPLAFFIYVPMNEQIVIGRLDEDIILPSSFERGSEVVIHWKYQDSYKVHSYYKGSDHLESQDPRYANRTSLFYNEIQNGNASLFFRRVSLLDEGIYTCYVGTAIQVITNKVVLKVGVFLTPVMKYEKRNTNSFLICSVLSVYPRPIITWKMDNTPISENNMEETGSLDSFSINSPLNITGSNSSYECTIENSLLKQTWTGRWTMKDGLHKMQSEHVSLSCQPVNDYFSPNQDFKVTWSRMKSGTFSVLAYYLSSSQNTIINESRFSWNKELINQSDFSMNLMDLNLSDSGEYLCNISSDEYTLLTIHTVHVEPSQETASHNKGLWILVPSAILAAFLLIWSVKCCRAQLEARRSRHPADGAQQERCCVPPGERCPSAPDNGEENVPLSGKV
In words: cell-based or functional assay.

Assay [3] concerns the target T1, human B7-H7 (soluble analyte in SPR). In words: SPR (Biacore), antibody captured by anti-Fc on CM5 chip, B7-H7 injected, 37 C. On the procedure:
as §1

Assay [4] addresses B4. As to the kind of experiment: FACS competition: antibody titrated against soluble hB7-H7-Fc binding to HEK-293 cells expressing human CD28H. On the procedure: (§2) Exemplary anti-B7-H7 antibodies identified by ELISA and FACS were tested for their ability to block binding of soluble B7-H7 to receptors KIR3DL3 or CD28H in a FACS assay. HEK-293 cells were transiently transfected with a construct encoding (i) a membrane-bound KIR3DL3 protein or (ii) a membrane-bound CD28H protein. After 48 hours, transfected cells were suspended in ice cold PBS containing 1% FBS and 0.1% sodium azide and incubated on ice in the presence of […]/ml of soluble human B7-H7-Fc protein and antibodies 2D7, 1D3, 28F3, 16D5, 2F10, 5F7, 5B10, 5C9, or 3H6 (serially diluted from […] to 4.6 ng/ml). A second incubation with an anti-human Fc secondary antibody was performed to detect cells bound by the soluble B7-H7-Fc. The cells were analyzed on a BD FACSCalibur instrument (BD Biosciences) and the data was processed using FlowJo software. Calculated IC50s are shown Table 12.

The target in assay [5] is B4. In words: FACS competition: antibody titrated against soluble hB7-H7-Fc binding to HEK-293 cells expressing human KIR3DL3. The method, then: as §2
The target in assay [6] is T3, human KIR3DL3 expressed on the cell surface (human, UniProt Q8N743 26-410).
T3 construct: also called cells expressing human KIR3DL3
As to the kind of experiment: cell-based fluorescence assay (CellInsight): soluble B7-H7-Fc titrated on HEK-293T cells transfected with KIR3DL3, Alexa Fluor 488 anti-human Fc detection; soluble B7-H7-Fc on KIR3DL3-transfected cells. On the procedure: (§3) The molecule CD28H has previously been identified as a receptor of B7-H7 (Zhu et al., 2013, Nature Communications, ncomms3043; Zhu et al. refer to B7-H7 as “B7-H5”). Studies by the inventors have identified KIR3DL3 as a second receptor for B7-H7. HEK-293T cells were transiently transfected with a KIR3DL3 construct. 40,000 cells were aliquoted into each well of a 384-well plate and were transfected with 200 ng of plasmid DNA encoding KIR3DL3 using Lipofectamine™ 2000 (ThermoFisher Scientific). After 48 hours, soluble B7-H7-Fc (serially diluted from 10 to 0.16 pg/ml) was added to the wells and plates were incubated from one hour at room temperature. An Alexa Fluor® 488-labeled anti-human Fc secondary antibody was added to the wells and plates were incubated for one hour at room temperature. Cells were washed with HBSS and fixed for 15 minutes with 7.4% formalin in PBS. Cells were washed with PBS and the fluorescence signals were detected using a CellInsight™ platform (ThermoFisher Scientific). A similar experiment was conducted with cells transiently transfected with a B7-H7 construct and soluble biotinylated KIR3DF3 ECD. An Alexa Fluor® 488-labeled streptavidin was used for detection.

Assay [7] concerns the target T2, human B7-H7 expressed on the cell …. In words: cell-based fluorescence assay (CellInsight): soluble biotinylated KIR3DL3 ECD on cells transfected with B7-H7, Alexa Fluor 488 streptavidin detection; soluble biotinylated KIR3DL3 ECD on B7-H7-transfected cells. The method, then: as §3

B1: anti-B7-H7 antibody 2D7 (antibody, V domains shown)
VH: EVQLQQSGPELVKPGASVKISCKTSGYTFTEYTMHWVKQSHGKSLEWIGGINPNNYGAPYNQKFKGKATLTVDKSSNTAYMELRSLTSEDSAIYYCASGGYYFDYWGQGTTLTVSS
VL: DIVMTQSHKFMSTSFGDRVSITCKASQDVGTAVAWYQQKLGQSPKLLISWAFTRHTGVPDRFTGSGSGTDYTLTISSLQAEDLALYYCQQHYDTPFTFGSGTKLEIK
notes: Parental mouse hybridoma antibody raised against human B7-H7-Fc
Turning to B1, the Kd in assay [1] and in assay [3] was under 0.1 nM in each case. The koff (in general, the rate constant with which the complex falls apart) in assay [1] amounted to 1e-05 s⁻¹. In assay [2], the “Induction of NK-92 cytotoxicity EC50” value amounted to 1 nM. The results for the IC50 in assay [4] and in assay [5] were 2.1 nM and 2 nM, respectively.

B2: chimeric 2D7 antibody comprising the murine heavy chain and light chain variable regions of 2D7 and a human Fc region (antibody, V domains shown)
VH: EVQLQQSGPELVKPGASVKISCKTSGYTFTEYTMHWVKQSHGKSLEWIGGINPNNYGAPYNQKFKGKATLTVDKSSNTAYMELRSLTSEDSAIYYCASGGYYFDYWGQGTTLTVSS
VL: DIVMTQSHKFMSTSFGDRVSITCKASQDVGTAVAWYQQKLGQSPKLLISWAFTRHTGVPDRFTGSGSGTDYTLTISSLQAEDLALYYCQQHYDTPFTFGSGTKLEIK
Consider B2, for which, in assay [1], the Kd (in general, the concentration at which binding is half-saturated) is under 0.1 nM and the off-rate constant (koff) came out at 5.61e-06 s⁻¹.

B3: humanized anti-B7-H7 antibody Hz2D7 (antibody, human IgG1, kappa, V domains shown)
VH: QVQLVQSGAEVKKPGASVKVSCKTSGYTFTEYTMHWVRQAPGQGLEWMGGINPNNYGAPYNQKFKGRVTMTVDTSISTAYMELSRLRSDDTAVYYCASGGYYFDYWGQGTLVTVSS
VL: DIQMTQSPSSLSASVGDRVTITCKASQDVGTAVAWYQQKPGKAPKLLIYWAFTRHTGVPSRFSGSGSGTDYTLTISSLQPEDFATYYCQQHYDTPFTFGQGTKVEIKR
For the molecule B3, in assay [1], the Kd is under 0.1 nM and the koff came to 1.01e-05 s⁻¹.
The molecule B4 showed a Kd in assay [6] of 15 nM.

B5: soluble biotinylated KIR3DL3 ECD (receptor)
chain: QDKPFLSAWPGTVVSEGQHVTLQCRSRLGFNEFSLSKEDGMPVPELYNRIFRNSFLMGPVTPAHAGTYRCCSSHPHSPTGWSAPSNPVVIMVTGVHRKPSLLAHPGPLVKSGETVILQCWSDVRFERFLLHREGITEDPLRLVGQLHDAGSQVNYSMGPMTPALAGTYRCFGSVTHLPYELSAPSDPLDIVVVGLYGKPSLSAQPGPTVQAGENVTLSCSSRSLFDIYHLSREAEAGELRLTAVLRVNGTFQANFPLGPVTHGGNYRCFGSFRALPHAWSDPSDPLPVSVTGNSRHL
modifications: biotinylated (site not stated)
notes: also called soluble biotinylated KIR3DF3 ECD (so in the source); soluble KIR3DL3
B5 gave a Kd in assay [7] of 192 nM.
